Experimental data as given in patent publication US20240287484.

What was measured:
Conditions in all cases: qPCR; 3 mM MgCl2, 37 C
[1] = tested on: T1, MG167-3 RT (uncultivated organism (metagenomic))
T1 sequence: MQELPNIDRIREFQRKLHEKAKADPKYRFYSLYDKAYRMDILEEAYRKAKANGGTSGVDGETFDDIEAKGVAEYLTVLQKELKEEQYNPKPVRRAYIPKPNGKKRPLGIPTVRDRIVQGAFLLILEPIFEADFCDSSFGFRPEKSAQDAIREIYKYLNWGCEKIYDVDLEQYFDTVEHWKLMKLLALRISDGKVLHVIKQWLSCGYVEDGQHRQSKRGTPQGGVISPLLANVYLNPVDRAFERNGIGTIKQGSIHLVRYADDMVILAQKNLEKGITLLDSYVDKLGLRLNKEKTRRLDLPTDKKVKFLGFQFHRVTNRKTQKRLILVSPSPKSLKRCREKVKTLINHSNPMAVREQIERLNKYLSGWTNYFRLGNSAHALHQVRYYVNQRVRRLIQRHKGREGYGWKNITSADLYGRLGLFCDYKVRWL

[2] = tested on: MG167-5 RT (uncultivated organism (metagenomic))
[3] = tested on: T2, MG153-8 RT (uncultivated organism (metagenomic))
T2 sequence: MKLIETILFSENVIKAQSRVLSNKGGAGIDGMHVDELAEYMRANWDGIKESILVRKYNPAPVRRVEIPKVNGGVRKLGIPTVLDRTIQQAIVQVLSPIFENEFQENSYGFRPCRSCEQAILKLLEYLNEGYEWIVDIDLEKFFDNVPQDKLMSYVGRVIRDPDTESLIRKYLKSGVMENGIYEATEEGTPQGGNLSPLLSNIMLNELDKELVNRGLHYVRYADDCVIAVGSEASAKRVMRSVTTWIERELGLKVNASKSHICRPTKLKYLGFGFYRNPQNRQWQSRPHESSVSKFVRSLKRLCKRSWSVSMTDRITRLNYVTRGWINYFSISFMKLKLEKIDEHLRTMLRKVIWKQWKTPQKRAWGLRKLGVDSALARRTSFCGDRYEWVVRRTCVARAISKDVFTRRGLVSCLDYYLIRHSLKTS

[4] = tested on: T3, MG153-25 RT (uncultivated organism (metagenomic))
T3 sequence: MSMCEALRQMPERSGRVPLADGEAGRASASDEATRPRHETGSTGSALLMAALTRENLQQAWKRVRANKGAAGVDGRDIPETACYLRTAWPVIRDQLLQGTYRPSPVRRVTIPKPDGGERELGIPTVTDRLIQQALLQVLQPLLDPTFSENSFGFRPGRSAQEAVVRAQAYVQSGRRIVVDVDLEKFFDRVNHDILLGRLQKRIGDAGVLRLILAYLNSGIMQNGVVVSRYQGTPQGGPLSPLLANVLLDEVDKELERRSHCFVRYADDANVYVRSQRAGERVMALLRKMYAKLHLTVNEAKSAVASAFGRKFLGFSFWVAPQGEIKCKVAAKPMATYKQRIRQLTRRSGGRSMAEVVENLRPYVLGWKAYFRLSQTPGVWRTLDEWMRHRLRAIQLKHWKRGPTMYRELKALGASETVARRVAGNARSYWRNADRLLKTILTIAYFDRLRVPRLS

[5] = tested on: T4, MG153-27 RT (uncultivated organism (metagenomic))
T4 sequence: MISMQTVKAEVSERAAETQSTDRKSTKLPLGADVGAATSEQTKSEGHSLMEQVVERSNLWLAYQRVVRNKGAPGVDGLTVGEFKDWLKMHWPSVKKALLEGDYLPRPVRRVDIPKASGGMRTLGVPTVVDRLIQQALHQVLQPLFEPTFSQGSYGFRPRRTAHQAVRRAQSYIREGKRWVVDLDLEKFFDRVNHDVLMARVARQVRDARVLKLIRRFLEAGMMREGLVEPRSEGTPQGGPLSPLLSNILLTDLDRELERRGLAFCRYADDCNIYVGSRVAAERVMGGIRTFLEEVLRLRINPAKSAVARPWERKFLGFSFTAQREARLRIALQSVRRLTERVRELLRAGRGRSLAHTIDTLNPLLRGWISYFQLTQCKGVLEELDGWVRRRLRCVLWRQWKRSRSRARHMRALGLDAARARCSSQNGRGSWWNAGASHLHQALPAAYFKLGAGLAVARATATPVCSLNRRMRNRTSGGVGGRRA

Measured: activity (fold over background)

Sequence of MG167-5 RT (uncultivated organism (metagenomic)) (chain, as listed by the source): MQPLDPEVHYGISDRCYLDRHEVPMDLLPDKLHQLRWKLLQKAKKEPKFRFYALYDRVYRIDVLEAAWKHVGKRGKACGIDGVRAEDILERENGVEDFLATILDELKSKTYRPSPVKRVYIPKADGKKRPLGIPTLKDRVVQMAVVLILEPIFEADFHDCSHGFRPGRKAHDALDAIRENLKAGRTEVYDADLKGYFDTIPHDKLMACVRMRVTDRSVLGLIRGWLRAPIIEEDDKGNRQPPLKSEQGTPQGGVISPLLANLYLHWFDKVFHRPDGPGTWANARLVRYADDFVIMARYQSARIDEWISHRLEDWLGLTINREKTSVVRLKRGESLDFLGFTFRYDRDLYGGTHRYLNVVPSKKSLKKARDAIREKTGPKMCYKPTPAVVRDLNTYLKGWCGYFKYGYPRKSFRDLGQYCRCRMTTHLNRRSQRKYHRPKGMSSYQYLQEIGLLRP

200 nt RNA template annealed to DNA primer
> 10: all assays above
